Patent publication US20030186334A1, “KTS-disintegrins” (Temple University - Of the Commonwealth System of Higher …, priority 2001, published 2003)

T1: αvβ3 integrin, P06756
T1 chain 1: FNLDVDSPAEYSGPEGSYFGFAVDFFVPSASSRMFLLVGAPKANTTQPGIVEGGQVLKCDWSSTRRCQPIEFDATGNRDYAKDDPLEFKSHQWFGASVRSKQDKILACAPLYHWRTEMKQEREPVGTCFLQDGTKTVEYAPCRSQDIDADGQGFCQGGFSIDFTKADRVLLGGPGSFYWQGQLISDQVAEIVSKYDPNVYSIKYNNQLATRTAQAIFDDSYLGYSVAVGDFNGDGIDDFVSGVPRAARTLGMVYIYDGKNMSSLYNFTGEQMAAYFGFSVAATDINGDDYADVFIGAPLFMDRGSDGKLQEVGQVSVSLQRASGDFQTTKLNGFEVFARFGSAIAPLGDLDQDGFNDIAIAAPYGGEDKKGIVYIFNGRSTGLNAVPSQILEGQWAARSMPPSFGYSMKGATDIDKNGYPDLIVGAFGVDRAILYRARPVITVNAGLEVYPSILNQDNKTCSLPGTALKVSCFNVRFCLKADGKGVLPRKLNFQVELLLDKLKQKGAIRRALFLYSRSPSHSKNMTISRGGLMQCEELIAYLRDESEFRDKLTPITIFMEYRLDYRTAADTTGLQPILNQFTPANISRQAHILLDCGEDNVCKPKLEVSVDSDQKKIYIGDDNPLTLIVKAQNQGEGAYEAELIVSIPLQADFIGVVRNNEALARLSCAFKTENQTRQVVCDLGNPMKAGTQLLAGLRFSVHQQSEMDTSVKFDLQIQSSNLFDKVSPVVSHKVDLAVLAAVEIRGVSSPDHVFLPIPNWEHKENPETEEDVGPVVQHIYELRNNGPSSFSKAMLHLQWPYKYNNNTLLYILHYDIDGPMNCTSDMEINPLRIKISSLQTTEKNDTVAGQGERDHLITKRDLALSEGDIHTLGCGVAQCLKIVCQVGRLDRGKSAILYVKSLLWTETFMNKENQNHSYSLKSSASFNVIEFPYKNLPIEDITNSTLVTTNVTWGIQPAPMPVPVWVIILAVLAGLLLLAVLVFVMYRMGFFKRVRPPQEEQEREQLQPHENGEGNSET
T1 chain 2: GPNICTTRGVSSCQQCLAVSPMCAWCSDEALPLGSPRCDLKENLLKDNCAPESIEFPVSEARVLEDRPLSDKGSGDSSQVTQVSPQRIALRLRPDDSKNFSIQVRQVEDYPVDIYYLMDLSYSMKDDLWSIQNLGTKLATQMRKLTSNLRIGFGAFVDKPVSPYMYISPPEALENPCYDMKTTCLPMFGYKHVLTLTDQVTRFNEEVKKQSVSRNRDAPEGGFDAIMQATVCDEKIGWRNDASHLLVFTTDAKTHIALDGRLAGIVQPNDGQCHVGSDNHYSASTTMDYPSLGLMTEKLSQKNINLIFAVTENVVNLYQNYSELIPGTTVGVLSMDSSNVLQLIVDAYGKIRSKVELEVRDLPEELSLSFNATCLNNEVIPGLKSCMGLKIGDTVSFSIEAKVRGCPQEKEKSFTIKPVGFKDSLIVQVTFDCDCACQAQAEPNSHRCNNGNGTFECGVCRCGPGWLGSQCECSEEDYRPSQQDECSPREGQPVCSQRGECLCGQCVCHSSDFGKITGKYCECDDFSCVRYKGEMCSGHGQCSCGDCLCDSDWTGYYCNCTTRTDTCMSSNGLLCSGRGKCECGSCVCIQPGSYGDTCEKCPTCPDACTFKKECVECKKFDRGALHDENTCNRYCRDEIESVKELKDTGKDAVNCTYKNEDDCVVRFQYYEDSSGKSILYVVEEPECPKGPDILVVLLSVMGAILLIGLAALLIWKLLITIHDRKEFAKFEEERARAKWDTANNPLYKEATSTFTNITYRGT

T2: mouse α1β1 integrin (mouse), Q3V3R4
T2 chain 1: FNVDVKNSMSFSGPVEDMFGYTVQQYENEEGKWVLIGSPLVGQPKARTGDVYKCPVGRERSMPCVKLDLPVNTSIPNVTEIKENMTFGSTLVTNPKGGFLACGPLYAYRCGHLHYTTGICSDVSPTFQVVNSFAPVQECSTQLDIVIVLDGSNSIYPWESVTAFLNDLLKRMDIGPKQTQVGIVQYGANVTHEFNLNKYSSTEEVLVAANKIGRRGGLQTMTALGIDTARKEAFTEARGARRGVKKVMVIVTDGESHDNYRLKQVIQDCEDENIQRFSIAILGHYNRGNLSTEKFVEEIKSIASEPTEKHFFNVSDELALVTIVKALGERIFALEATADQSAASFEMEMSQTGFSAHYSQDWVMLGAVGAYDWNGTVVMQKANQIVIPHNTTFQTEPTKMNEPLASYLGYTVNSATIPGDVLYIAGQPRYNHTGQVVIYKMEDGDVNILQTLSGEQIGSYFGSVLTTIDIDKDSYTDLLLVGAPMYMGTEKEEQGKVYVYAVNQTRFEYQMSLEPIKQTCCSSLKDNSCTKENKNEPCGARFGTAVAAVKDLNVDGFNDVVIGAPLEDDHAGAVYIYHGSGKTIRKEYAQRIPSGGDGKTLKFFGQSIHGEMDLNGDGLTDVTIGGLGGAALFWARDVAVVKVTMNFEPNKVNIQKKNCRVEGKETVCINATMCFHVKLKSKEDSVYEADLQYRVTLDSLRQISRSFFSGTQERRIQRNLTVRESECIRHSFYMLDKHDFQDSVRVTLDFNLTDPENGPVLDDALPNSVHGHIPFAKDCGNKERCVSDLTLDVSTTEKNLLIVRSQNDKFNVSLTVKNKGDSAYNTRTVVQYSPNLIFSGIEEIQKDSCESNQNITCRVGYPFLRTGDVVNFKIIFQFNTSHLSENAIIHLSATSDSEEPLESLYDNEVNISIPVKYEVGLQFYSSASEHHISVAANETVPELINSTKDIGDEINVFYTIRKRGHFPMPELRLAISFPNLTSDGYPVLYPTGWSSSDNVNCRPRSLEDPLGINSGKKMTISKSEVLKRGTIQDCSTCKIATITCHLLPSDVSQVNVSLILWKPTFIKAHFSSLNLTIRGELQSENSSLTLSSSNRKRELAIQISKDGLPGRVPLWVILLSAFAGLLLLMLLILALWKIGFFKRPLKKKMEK
T2 chain 2: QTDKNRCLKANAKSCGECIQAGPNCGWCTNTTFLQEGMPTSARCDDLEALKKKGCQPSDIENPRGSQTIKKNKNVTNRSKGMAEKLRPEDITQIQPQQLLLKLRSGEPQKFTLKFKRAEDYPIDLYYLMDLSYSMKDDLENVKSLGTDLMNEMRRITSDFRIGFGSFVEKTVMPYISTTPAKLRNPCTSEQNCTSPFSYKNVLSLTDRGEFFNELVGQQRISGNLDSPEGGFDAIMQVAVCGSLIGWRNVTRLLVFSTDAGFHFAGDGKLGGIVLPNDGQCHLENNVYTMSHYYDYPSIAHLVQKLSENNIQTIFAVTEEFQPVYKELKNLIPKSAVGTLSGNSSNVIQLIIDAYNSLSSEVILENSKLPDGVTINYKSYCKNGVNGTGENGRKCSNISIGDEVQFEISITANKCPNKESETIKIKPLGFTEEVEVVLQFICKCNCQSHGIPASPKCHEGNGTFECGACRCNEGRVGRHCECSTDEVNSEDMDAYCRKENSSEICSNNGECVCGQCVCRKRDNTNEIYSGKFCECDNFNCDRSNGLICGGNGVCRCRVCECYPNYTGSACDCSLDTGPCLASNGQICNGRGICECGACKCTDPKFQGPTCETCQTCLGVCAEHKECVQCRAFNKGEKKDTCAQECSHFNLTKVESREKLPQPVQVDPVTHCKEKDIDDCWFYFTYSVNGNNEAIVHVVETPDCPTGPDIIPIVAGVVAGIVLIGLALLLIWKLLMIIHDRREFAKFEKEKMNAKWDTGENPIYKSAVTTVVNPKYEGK


The binders below were run against α5β1 integrin, P08648 (assay: inhibition of adhesion of K562 cells to fibronectin).
Target sequence in this assay (P08648 42-1049): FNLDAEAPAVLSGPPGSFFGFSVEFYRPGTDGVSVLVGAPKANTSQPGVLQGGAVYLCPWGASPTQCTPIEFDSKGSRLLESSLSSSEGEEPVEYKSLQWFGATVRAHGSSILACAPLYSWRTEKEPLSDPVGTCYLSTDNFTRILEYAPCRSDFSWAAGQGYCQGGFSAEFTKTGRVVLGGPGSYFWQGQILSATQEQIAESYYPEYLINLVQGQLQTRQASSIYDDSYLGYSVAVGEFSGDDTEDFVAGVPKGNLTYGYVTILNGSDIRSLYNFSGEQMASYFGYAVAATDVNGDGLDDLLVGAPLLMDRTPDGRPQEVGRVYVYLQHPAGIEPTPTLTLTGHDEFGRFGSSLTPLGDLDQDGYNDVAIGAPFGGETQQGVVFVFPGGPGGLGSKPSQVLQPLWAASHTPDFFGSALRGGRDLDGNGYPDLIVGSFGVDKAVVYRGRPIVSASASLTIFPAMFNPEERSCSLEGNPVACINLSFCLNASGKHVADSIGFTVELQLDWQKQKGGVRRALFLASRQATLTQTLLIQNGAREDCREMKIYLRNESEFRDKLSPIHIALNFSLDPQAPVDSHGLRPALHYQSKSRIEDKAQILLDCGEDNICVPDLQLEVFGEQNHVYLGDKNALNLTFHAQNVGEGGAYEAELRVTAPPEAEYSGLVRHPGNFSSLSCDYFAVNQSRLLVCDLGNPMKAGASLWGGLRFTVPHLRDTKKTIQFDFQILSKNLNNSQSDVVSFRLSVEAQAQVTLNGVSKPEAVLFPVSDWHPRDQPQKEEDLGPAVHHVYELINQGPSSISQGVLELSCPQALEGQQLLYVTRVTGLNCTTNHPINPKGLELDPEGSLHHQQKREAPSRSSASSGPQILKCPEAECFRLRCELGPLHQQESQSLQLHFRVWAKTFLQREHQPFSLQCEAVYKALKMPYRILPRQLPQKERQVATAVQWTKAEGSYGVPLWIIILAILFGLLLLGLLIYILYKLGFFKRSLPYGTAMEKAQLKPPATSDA

Binder | IC50
CTTGPCCRQCKLKPAGTTCWKTSLTSHYCTGKSCDCPLYPG (modifications not checked) [obtustatin] | > 10000 nM
QCESGPCCRNCKFLKEGTICKRARGDDMDDYCNGKTCDCPRNPHKGPAT (modifications not checked) [echistatin, P17347 131-179] | 50 nM

Molecular target: α5β1 integrin, P08648
Assay: as above
Remark: another data set of the same source
Target sequence in this assay (P08648 42-1049, chain 1 of 2): as the sequence (P08648 42-1049) above
Target sequence in this assay (P05556 21-798, chain 2 of 2, further chain): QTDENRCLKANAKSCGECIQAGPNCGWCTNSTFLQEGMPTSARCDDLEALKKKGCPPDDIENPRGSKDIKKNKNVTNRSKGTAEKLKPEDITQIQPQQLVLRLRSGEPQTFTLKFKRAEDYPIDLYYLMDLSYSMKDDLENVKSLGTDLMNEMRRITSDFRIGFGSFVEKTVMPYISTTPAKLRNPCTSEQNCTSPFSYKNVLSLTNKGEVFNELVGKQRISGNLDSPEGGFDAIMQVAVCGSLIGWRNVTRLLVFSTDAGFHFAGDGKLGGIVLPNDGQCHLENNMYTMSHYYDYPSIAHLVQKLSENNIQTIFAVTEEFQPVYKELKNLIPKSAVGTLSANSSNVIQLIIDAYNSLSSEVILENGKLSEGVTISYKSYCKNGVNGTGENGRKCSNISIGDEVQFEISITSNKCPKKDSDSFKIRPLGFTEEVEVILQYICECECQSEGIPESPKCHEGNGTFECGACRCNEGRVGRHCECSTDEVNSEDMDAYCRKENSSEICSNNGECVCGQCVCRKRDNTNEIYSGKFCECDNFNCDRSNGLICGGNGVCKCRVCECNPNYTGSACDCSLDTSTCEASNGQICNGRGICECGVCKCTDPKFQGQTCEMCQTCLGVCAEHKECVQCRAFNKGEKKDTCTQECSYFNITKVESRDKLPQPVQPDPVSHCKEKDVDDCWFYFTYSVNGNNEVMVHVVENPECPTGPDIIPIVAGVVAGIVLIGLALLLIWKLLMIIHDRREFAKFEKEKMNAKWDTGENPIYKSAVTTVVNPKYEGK

Binder | IC50
CTTGPCCRQCKLKPAGTTCWKTSLTSHYCTGKSCDCPLYPG (modifications not checked) [obtustatin] | > 5000 nM

Molecular target: T1, αvβ3 integrin, P06756
Assay: inhibition of adhesion of JY cells to vitronectin

Binder | IC50
CTTGPCCRQCKLKPAGTTCWKTSLTSHYCTGKSCDCPLYPG (modifications not checked) [obtustatin] | > 10000 nM
QCESGPCCRNCKFLKEGTICKRARGDDMDDYCNGKTCDCPRNPHKGPAT (modifications not checked) [echistatin, P17347 131-179] | 0.1 nM

The binders below were run against α2β1 integrin, P17301 (assay: inhibition of adhesion of α2K562 cells to collagen I).

Binder | IC50
CTTGPCCRQCKLKPAGTTCWKTSLTSHYCTGKSCDCPLYPG (modifications not checked) [obtustatin] | > 10000 nM
QCESGPCCRNCKFLKEGTICKRARGDDMDDYCNGKTCDCPRNPHKGPAT (modifications not checked) [echistatin, P17347 131-179] | > 10000 nM

These binders were tested against human α1β1 integrin (human), P56199 (assay: inhibition of adhesion of α1K562 cells to immobilised collagen IV).

Binder | IC50
CTTGPCCRQCKLKPAGTTCWKTSLTSHYCTGKSCDCPLYPG (modifications not checked) [obtustatin] | 2 nM

The binders below were run against human α1β1 integrin (human), P56199 (assay: inhibition of adhesion of HS.939T cells to collagen IV).

Binder | IC50
CTTGPCCRQCKLKPAGTTCWKTSLTSHYCTGKSCDCPLYPG (modifications not checked) [obtustatin] | 0.1 nM
QCESGPCCRNCKFLKEGTICKRARGDDMDDYCNGKTCDCPRNPHKGPAT (modifications not checked) [echistatin, P17347 131-179] | > 10000 nM

These binders were tested against human α1β1 integrin (human), P56199 (assay: inhibition of adhesion of α1K562 cells to collagen I).

Binder | IC50
CTTGPCCRQCKLKPAGTTCWKTSLTSHYCTGKSCDCPLYPG (modifications not checked) [obtustatin] | 0.5 nM
QCESGPCCRNCKFLKEGTICKRARGDDMDDYCNGKTCDCPRNPHKGPAT (modifications not checked) [echistatin, P17347 131-179] | > 10000 nM

What follows are binders tested against α9β1 integrin, Q13797 (assay: inhibition of adhesion of SW480α9 cells to VCAM-1).
α9β1 integrin, Q13797, sequence (Q13797 30-1035): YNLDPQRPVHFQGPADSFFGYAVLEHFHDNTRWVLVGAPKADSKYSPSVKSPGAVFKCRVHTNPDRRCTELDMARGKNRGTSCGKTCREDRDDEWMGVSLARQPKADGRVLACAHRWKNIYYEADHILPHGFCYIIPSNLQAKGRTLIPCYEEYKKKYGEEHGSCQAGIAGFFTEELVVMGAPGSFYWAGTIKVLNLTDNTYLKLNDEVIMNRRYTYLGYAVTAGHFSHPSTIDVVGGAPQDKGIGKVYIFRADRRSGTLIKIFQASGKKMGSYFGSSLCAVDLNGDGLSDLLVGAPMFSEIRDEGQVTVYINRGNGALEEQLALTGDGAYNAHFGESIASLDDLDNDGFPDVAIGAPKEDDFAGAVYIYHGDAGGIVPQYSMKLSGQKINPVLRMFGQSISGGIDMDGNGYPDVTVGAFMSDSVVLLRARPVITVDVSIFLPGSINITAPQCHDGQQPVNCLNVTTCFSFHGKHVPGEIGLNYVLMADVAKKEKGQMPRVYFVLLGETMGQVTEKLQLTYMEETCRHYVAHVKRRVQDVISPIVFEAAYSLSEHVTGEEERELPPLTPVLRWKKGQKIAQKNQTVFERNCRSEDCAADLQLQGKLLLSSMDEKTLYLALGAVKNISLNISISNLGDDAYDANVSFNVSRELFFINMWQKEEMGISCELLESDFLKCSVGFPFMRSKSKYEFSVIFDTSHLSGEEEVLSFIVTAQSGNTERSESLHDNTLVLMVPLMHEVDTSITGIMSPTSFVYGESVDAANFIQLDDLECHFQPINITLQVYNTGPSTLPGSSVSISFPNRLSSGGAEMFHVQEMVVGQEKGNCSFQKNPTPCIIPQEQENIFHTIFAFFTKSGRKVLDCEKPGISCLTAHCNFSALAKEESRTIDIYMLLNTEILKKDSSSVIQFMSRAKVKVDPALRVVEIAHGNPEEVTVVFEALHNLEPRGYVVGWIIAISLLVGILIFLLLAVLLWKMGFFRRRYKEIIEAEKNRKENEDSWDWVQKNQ

Binder | IC50
CTTGPCCRQCKLKPAGTTCWKTSLTSHYCTGKSCDCPLYPG (modifications not checked) [obtustatin] | > 10000 nM
QCESGPCCRNCKFLKEGTICKRARGDDMDDYCNGKTCDCPRNPHKGPAT (modifications not checked) [echistatin, P17347 131-179] | > 10000 nM

Molecular target: T2, mouse α1β1 integrin (mouse), Q3V3R4
Assay: inhibition of adhesion of B16F10 cells to collagen IV

Binder | IC50
CTTGPCCRQCKLKPAGTTCWKTSLTSHYCTGKSCDCPLYPG (modifications not checked) [obtustatin] | 0.2 nM
QCESGPCCRNCKFLKEGTICKRARGDDMDDYCNGKTCDCPRNPHKGPAT (modifications not checked) [echistatin, P17347 131-179] | > 10000 nM

What follows are binders tested against αIIbβ3 integrin, P08514 (assay: inhibition of adhesion of A5 cells to fibrinogen).

Binder | IC50
CTTGPCCRQCKLKPAGTTCWKTSLTSHYCTGKSCDCPLYPG (modifications not checked) [obtustatin] | > 10000 nM
QCESGPCCRNCKFLKEGTICKRARGDDMDDYCNGKTCDCPRNPHKGPAT (modifications not checked) [echistatin, P17347 131-179] | 50 nM

The binders below were run against human α1β1 integrin (human), P56199 (assay: inhibition of adhesion of α1K562 cells to collagen IV).

Binder | IC50
CTTGPCCRQCKLKPAGTTCWKTSLTSHYCTGKSCDCPLYPG (modifications not checked) [obtustatin] | 2 nM
QCESGPCCRNCKFLKEGTICKRARGDDMDDYCNGKTCDCPRNPHKGPAT (modifications not checked) [echistatin, P17347 131-179] | > 10000 nM

What follows are binders tested against α4β1 integrin, P13612 (assay: inhibition of adhesion of Jurkat cells to VCAM-1).

Binder | IC50
CTTGPCCRQCKLKPAGTTCWKTSLTSHYCTGKSCDCPLYPG (modifications not checked) [obtustatin] | > 10000 nM
QCESGPCCRNCKFLKEGTICKRARGDDMDDYCNGKTCDCPRNPHKGPAT (modifications not checked) [echistatin, P17347 131-179] | > 10000 nM
